US8877476B2, “Soluble and stable human 5-lipoxygenase” (Board of Supervisors of Louisiana State University and …, priority 2010, dated 2014)
Residue numbers refer to the chain shown, from its start. Numbers in names are those of the source.

B1: Sol-5-LOX: more soluble form of human 5-LOX, SEQ ID NO: 2 (W13E, F14H, Δ40-44GS, W75G, L76S, C240A, C561A) (protein)
chain: MGSSHHHHHHSSGLVPRGSHMPSYTVTVATGSQEHAGTDDYIYLSLVGSAGCSEKHLLDKGSFERGAVDSYDVTVDEELGEIQLVRIEKRKYGSNDDWYLKYITLKTPHGDYIEFPCYRWITGDVEVVLRDGRAKLARDDQIHILKQHRRKELETRQKQYRWMEWNPGFPLSIDAKCHKDLPRDIQFDSEKGVDFVLNYSKAMENLFINRFMHMFQSSWNDFADFEKIFVKISNTISERVMNHWQEDLMFGYQFLNGANPVLIRRCTELPEKLPVTTEMVECSLERQLSLEQEVQQGNIFIVDFELLDGIDANKTDPCTLQFLAAPICLLYKNLANKIVPIAIQLNQIPGDENPIFLPSDAKYDWLLAKIWVRSSDFHVHQTITHLLRTHLVSEVFGIAMYRQLPAVHPIFKLLVAHVRFTIAINTKAREQLICECGLFDKANATGGGGHVQMVQRAMKDLTYASLCFPEAIKARGMESKEDIPYYFYRDDGLLVWEAIRTFTAEVVDIYYEGDQVVEEDPELQDFVNDVYVYGMRGRKSSGFPKSVKSREQLSEYLTVVIFTASAQHAAVNFGQYDWASWIPNAPPTMRAPPPTAKGVVTIEQIVDTLPDRGRSCWHLGAVWALSQFQENELFLGMYPEEHFIEKPVKEAMARFRKNLEAIVSVIAERNKKKQLPYYYLSPDRIPNSVAI
modifications: Δ40-44 replaced by GS; Sol-5-LOX
B2: S663D-Stable-5-LOX: Stable-5-LOX with Serine 663 replaced with Aspartic acid, SEQ ID NO: 4, mimics phosphorylated state (protein)
chain: B1 chain with K671E, K672N, K673L, S681D
modifications: S663D-Stable-5-LOX

Tests used:
[1] = Melting curves (thermal denaturation, SYPRO Orange fluorescence); assay type: physicochemical; conditions: fluorescence vs temperature, four independent experiments in triplicate
Description: Melting temperature assays were performed according to the protocol described by Ericsson et al. (31) Protein was diluted to 1 μM in a final volume of 150 μl 5×SYPRO® Orange protein stain (Invitrogen, Carlsbad, Calif.). Samples were aliquoted in triplicate volumes of 40 μl in a 96-well reaction plate. The plate was subjected to a linear thermal shift from 5 to 94° C. in one degree increments in a 7500 Fast Real-Time PCR System (Applied Biosystems, Branchburg, N.J.). The SYBR Green cutoff filter was used for fluorescence detection of denaturing protein-SYPRO® Orange binding. The resulting data were exported to Sigma Plot 9, and the sigmoidal part of the curve was averaged for each triplicate. The averaged curves were subsequently fit to a four parameter sigmoidal equation. The Tm values reported are the results of four independent experiments, each in triplicate, with multiple protein preparations.

[2] = Concentration to which the protein can be concentrated; assay type: physicochemical
[3] = Product assays (HPLC of arachidonic acid oxygenation products); assay type: biochemical
Description: Incubations were conducted in 0.5 ml 0.1 M Tris pH 7.5 containing 150 mM NaCl and 1 mM CaCl2 with 1-20 μg/ml 5-LOX enzyme. The reaction was initiated by addition of arachidonic acid (10-100 μM) added in 1-5 μl ethanol and monitored by UV spectroscopy until completion of reaction (5-10 min). Products were extracted by adjusting the solution to ˜pH 4 by addition of 50 μl 1 M KH2PO4 plus 5 μl 1N HCl and vigorous mixing with two volumes of dichloromethane. After a brief centrifugation to clear the phases, the lower organic layer was collected, washed twice with 0.5 ml water, taken to dryness under a stream of nitrogen, and then dissolved in a small volume of methanol for storage at −20° C. prior to HPLC. Reversed-phase HPLC was carried out using Agilent 1100 series equipment with a Waters C18 Symmetry column (25×0.46 cm), a solvent of acetonitrile/water/glacial acetic acid (60:40:0.01, v/v/v) or methanol/water/glacial acetic acid (80:20:0.01, v/v/v), a flow rate of 1 ml/min, with UV monitoring at 205 nm, 220 nm, 235 nm and 270 nm. The chirality of the product was confirmed as 5S: Mobile phase hexane/methanol 100:2; 1 ml/min; Chiralpak AD column (4.6×250 mm). The HETEs were made into the methyl esters before chiral analysis using ethereal diazomethane.

[4] = Enzyme half-life at 37° C. by monitoring enzyme activity (ΔA238) over 24 hrs; assay type: biochemical

| Molecule | Tm (with s.d.) [1] | can be concentrated to [2] | products formed from arachidonic acid ([3]; HPLC chromatogram, FIG. 6D / FIG. 8) | half-life at 37° C. [4] | change of product specificity by the S663D amino acid change ([3]; Serine 663 replaced with Aspartic acid, method not described) |
| --- | --- | --- | --- | --- | --- |
| B1 | 56.6(±0.4) ° C. | 2 mg/mL | produces both the intermediate 5S-HPETE and the product leukotriene A4 | ~7 h |  |
| B2 |  |  |  |  | converted the enzyme from a 5-LOX to a 15-LOX |
